Holding throughout (assay): SPR
Background: In SPR one partner is held on a chip, and binding of the other changes the refractive index at the surface.

In assay [1] the target is VRC01 antibody derived from HEK cells (VRC01HEK) (human).
For assay [2], the target named is VRC01 co‐expressed with human β1,4‐galactosyltransferase in the ΔXT/FT plant line (VRC01Gal) (human).
Assay [3] concerns the target VRC01 expressed in the ΔXT/FT N. benthamiana plant line (VRC01ΔXF) (human).
In assay [4] the target is VRC01 expressed transiently in WT N. benthamiana (VRC01WT) (human).
For assay [5], the target named is plant‐produced VRC01 variant lacking Fc N‐glycans, N297S (VRC01aglyco) (human).

Some results are limits rather than exact numbers.

Two substances from PMC6953194 can be followed below.

VRC01 expressed transiently in WT N. benthamiana (VRC01WT) (human), sequence (light, as listed by the source, chain 2 of 2, other chains not shown): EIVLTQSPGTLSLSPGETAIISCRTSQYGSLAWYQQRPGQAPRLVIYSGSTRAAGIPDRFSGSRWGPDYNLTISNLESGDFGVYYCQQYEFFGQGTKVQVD
recombinant human FcγRI ectodomain, sequence (P12314 16-292): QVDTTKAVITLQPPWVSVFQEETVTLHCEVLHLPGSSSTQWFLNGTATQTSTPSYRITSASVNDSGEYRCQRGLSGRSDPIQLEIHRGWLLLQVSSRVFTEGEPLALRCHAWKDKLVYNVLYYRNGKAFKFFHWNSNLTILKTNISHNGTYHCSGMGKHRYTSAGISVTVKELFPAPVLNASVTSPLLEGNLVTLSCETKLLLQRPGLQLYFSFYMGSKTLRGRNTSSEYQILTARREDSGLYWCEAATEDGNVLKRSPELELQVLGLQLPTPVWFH
VRC01 co‐expressed with human β1,4‐galactosyltransferase in the ΔXT/FT plant line (VRC01Gal) (human), sequence (light, as listed by the source, chain 2 of 2, other chains not shown): as the sequence (light, as listed by the source, chain 2 of 2, other chains not shown) above
VRC01 antibody derived from HEK cells (VRC01HEK) (human), sequence (light, as listed by the source, chain 2 of 2, other chains not shown): as above
VRC01 expressed in the ΔXT/FT N. benthamiana plant line (VRC01ΔXF) (human), sequence (light, as listed by the source, chain 2 of 2, other chains not shown): as above
plant‐produced VRC01 variant lacking Fc N‐glycans, N297S (VRC01aglyco) (human), sequence (light, as listed by the source, chain 2 of 2, other chains not shown): as above

With “recombinant human FcγRI ectodomain (from UniProt P12314 16-292) (receptor)”, the dissociation constant (Kd) (in general, a measure of binding affinity in units of concentration) in assay [1] amounted to 0.098 nM; in assay [2], 0.558 nM; in assay [3] it was 0.247 nM; in assay [4], 3 nM; in assay [5], 71 nM. This substance returned a half‐life of the antibody–FcγRI complex in assay [4] of 5 min.
As for “recombinant human FcγRIIb ectodomain (from UniProt P31994 43-217) (receptor)”, the Kd in assay [1] was 3400 nM; in assay [2] it was 3700 nM; in assay [3], 2500 nM; in assay [4], over 7000 nM.
